Experimental data published in publication PMC5327651 (Virology, 2016).
Substitutions are numbered along the chain they refer to.

B1: WT rhTRIM5α CC-L2 peptide (residues 132-296) with an added C-terminal cysteine, fluorescently labelled (domain or fragment, rhesus macaque)
chain: LMEEVAQEYHVKLQTALEMLRQKQQEAEKLEADIREEKASWKIQIDYDKTNVSADFEQLREILDWEESNELQNLEKEEEDILKSLTKSETEMVQQTQYMRELISELEHRLQGSMMDLLQGVDGIIKRIENMTLKKPKTFHKNQRRVFRAPDLKGMLDMFRELTDAC
modifications: Alexa Fluor 488 C5-maleimide or Alexa Fluor 594 C5-maleimide on the added C-terminal cysteine
B2: HKN271-273AAA rhTRIM5α CC-L2 peptide (residues 132-296) with an added C-terminal cysteine, fluorescently labelled (domain or fragment, rhesus macaque)
chain: B1 chain with H140A, K141A, N142A
modifications: Alexa Fluor 488 C5-maleimide or Alexa Fluor 594 C5-maleimide on the added C-terminal cysteine
B3: RRV275-277AAA rhTRIM5α CC-L2 peptide (residues 132-296) with an added C-terminal cysteine, fluorescently labelled (domain or fragment, rhesus macaque)
chain: B1 chain with R144A, R145A, V146A
modifications: Alexa Fluor 488 C5-maleimide or Alexa Fluor 594 C5-maleimide on the added C-terminal cysteine

What was measured:
cross-linking = molecular target: the molecule itself; assay: cross-linking
FRET or BRET = molecular target: the molecule itself; assay: FRET or BRET

Protein	stoichiometry N (cross-linking)	binding result (FRET or BRET)
B1	2	–
B2	–	binds
B3	–	binds
